What was measured:
HuR (ELAVL1) = HuR (ELAVL1) (UniProt Q15717 Q15717:1-326); assay: EMSA; 0.2-0.6 uM HuR; 30 mM Tris pH 7.4, 5 mM MgCl2, 50 mM KCl, yeast tRNA, room temperature; sequence listed as DNA, assayed as RNA transcript; settings: pre-miRNA hairpin
Wnt7a = target: T1, Wnt7a (UniProt O00755 32-349, limits assumed); assay: co-IP with anti-FSTL1 antibody or IgG control from A253 lysate, western blot for Wnt7a
T1 construct: Endogenous protein of the A253 (HNSCC) cell lysate
T1 sequence (looked up): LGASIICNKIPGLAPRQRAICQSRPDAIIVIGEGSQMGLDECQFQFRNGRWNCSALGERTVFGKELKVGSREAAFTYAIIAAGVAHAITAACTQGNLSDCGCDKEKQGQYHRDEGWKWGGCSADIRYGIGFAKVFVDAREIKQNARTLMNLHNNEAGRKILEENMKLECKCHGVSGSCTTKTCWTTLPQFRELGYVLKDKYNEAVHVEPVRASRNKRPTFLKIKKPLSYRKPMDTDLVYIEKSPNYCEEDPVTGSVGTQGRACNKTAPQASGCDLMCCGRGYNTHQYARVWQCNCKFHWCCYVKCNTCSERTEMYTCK

Chain of HuR (ELAVL1) (Q15717 whole entry, one chain of several): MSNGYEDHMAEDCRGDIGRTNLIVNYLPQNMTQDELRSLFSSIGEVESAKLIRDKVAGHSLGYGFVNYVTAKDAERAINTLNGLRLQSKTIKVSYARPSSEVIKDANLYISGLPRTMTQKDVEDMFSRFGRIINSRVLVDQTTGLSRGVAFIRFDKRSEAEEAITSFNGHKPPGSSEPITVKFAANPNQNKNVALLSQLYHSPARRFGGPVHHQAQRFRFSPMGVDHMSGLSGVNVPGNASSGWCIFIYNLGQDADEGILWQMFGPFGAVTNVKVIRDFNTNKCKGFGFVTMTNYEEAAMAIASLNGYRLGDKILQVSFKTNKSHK

B1: pre-miR-198 WT (ssRNA)
RNA: UCAUUGGUCCAGAGGGGAGAUAGGUUCCUGUGAUUUUUCCUUCUUCUCUAUAGAAUAAAUGA
Q: Does B1 bind (HuR (ELAVL1))?
A: binds

B2: Follistatin-related protein 1 (FSTL1) (other)
chain: EEELRSKSKICANVFCGAGRECAVTEKGEPTCLCIEQCKPHKRPVCGSNGKTYLNHCELHRDACLTGSKIQVDYDGHCKEKKSVSPSASPVVCYQSNRDELRRRIIQWLEAEIIPDGWFSKGSNYSEILDKYFKNFDNGDSRLDSSEFLKFVEQNETAINITTYPDQENNKLLRGLCVDALIELSDENADWKLSFQEFLKCLNPSFNPPEKKCALEDETYADGAETEVDCNRCVCACGNWVCTAMTCDGKNQKGAQTQTEEEMTRYVQELQKHQETAEKTKRVSTKEI
notes: Endogenous secreted glycoprotein in A253 cell lysates, pulled down with the anti-FSTL1 antibody; also called follistatin-like-1
Q: Does B2 bind (Wnt7a)?
A: binds

From patent US20190330625A1, “CONSEQUENCES OF A DEFECTIVE SWITCH IN CUTANEOUS SQUAMOUS CELL CARCINOMA” (AGENCY FOR SCIENCE, TECHNOLOGY AND RESEARCH, published 2019)
